The target in assay [1] is T1, human BR3 extracellular domain (human, UniProt Q96RJ3 1-61).
T1 construct: biotinylated where used as tracer; also called hBR3-ECD; BR3-ECD
In words: SPR with Fab.
Experimental: (§1) Each sample was analysed with 2-minute association and 20-minute dissociation. After each injection the chip was regenerated using 10 mM Glycine pH 1.5. Binding response was corrected by subtracting the RU from a blank flow cell. A 1:1 Languir model of simultaneous fitting of kₒₙ and koff was used for kinetics analysis.

In assay [2] the target is T1, human BR3 extracellular domain. Briefly: SPR, BR3 ECD on chip.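 Note: Anti-BR3 antibodies passed over the chip at high flow in PBS with 0.05% polysorbate 20, on and off rates fitted together globally to a 1:1 binding model.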 Background: Surface plasmon resonance follows binding to a sensor surface in real time, without labels.
Experimental: (§2) After coupling, unoccupied sites on the chip were blocked by injecting 20 μl of 1M ethanolamine, pH 8.5. The running buffer was PBS containing 0.05% polysorbate 20. […] The binding surface was regenerated by injecting 20-30 μl of 10 mM glycine.HCl (pH 1.5). […] Data were analyzed using a 1:1 binding model using global fitting. The association and dissociation rate constants were fitted simultaneously (BIAevaluation software).
(§3) A high flow rate was used in order to minimize mass transport effects.
For assay [3], the target named is T2, variant human BR3-Fc fusion.
T2 construct: produced in CHO cells; also called vBR3-Fc; vhBR3-Fc
Briefly: SPR, vBR3-Fc on chip.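 Note: Anti-BR3 antibodies passed over chip-bound BR3-Fc in PBS with 0.05% polysorbate 20, on and off rates fitted together globally to a 1:1 binding model.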
Experimental: as §2, §3

The target of assay [4] is T1, human BR3 extracellular domain. In words: BIAcore, Fab over immobilised target.
Experimental: as §1
For assay [5], the target named is T2, variant human BR3-Fc fusion. Briefly: BIAcore, Fab over immobilised target.
Experimental: as §1
Assay [6] has as its target T1, human BR3 extracellular domain. In words: phage competition ELISA. (In general: An ELISA detects its analyte on a solid surface through an enzyme-linked reagent.)
In assay [7] the target is T3, mouse BR3 extracellular domain (mouse, UniProt Q9D8D0 1-64).
T3 construct: also called mBR3-ECD; mBR-ECD
T3 sequence: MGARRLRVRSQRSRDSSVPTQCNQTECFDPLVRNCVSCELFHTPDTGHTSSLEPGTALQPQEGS
In words: phage competition ELISA.

A further assay has as its target T4, MiniBR3 peptide (human, C-terminal amide; disulfide between cysteines 24 and 35 and a second disulfide (BR3 numbering)).
T4 construct: synthetic
Briefly: phage competition ELISA.

Assay [8] concerns the target T1, human BR3 extracellular domain. In words: SPR BIAcore-2000, ECD on chip, Fab injected.
Text: (§4) Biacore measurement Surface plasmon resonance assays on a BIAcore™-2000 were used to determine the affinity of anti-BR3 Fabs. […] For kinetics analysis, 1:1 Languir model of simultaneous fitting of kₒₙ and koff was used.
In assay [9] the target is T3, mouse BR3 extracellular domain. Briefly: SPR BIAcore-2000, ECD on chip, Fab injected.
Text: as §4
The target is the same in assay [10]. Briefly: SPR BIAcore-2000, mBR3-ECD on chip, Fab injected.
Text: as §4
Assay [11] deals with T1, human BR3 extracellular domain. Briefly: SPR BIAcore-2000, hBR3-ECD on chip, Fab injected.
Text: as §4
Assay [12] has the same target. In words: single spot phage competition ELISA; OD with competitor / OD without competitor; criterion met by the picked clones.
The target of assay [13] is T3, mouse BR3 extracellular domain. The description is as above.
Assay [14] has as its target T1, human BR3 extracellular domain. In words: F(ab)'2 phage solution binding competition ELISA.
Experimental: (§5) Third, a competition ELISA was performed. […] The wells were blocked by adding 65 ul 1% BSA for 30 minutes followed by 40 ul 1% Tween20 for another 30 minutes. The wells were washed with PBS—0.05% Tween20 5 times. […] The wells of the second plate were washed with PBS—0.5% Tween20 at least three times. 75 ul of HRP-conjugated anti-M13 antibody (1/5000 dilution with ELISA buffer) per well was added and incubated at room temperature for 30 minutes. The wells were washed again with PBS—0.05% Tween20 at least five times.
For assay [15], the target named is T5, mouse BR3-Fc (mouse).
T5 construct: (BR3 ECD fused to a murine Fc); also called mBR3-Fc; murine BR3-Fc
T5 chain: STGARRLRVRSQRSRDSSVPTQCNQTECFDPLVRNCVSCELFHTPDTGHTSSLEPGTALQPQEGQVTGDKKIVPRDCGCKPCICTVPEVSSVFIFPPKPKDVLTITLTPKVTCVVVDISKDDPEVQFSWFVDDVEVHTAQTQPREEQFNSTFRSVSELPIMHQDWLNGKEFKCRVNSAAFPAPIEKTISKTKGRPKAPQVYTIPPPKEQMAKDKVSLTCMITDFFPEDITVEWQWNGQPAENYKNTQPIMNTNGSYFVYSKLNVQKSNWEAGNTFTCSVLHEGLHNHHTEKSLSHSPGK
In words: F(ab)'2 phage solution binding competition ELISA.
Experimental: as §5

The target in assay [16] is T3, mouse BR3 extracellular domain. In words: F(ab)'2 phage solution binding competition ELISA.
Experimental: as §5
The target of assay [17] is T5, mouse BR3-Fc. In words: BAFF blocking ELISA: F(ab)'2 phage added to coated mBR3-Fc after mBAFF-Flag.
Experimental: The wells were blocked by adding 65 ul 1% BSA for 30 minutes followed by 40 ul 1% Tween20 for another 30 minutes. Next, the wells were washed five times with PBS—0.05% Tween20. […] The wells were washed five times with PBS—0.05% Tween20.
Binding was quantified by adding 75 ul/well of horse radish peroxidase (HRP)-conjugated anti-M13 antibody in PBS plus 0.5% BSA and 0.05% Tween20 at room temperature for 30 minutes (Sidhu et al., supra). The wells were washed with PBS—0.05% Tween20 at least five times.

Results on seven molecules are retold here after US20100280227A1 (Genentech, published 2010).

Values joined by “and” are separate entries in the source; they are usually repeats but may differ in a detail not shown here. Equal entries are not always repeated. Where two headings read alike, the source gives them in different places.

T4 sequence (peptide, as listed by the source): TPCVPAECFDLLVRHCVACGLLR

B1: Hu9.1-70 Fab (Fab, V domains shown)
VH: EVQLVESGGGLVQPGGSLRLSCAASDSPRSGYYISWVRQAPGKGLEWVGFIRDKANGYTTEYNPSVKGRFTISADTSKNTAYLQMNSLRAEDTAVYYCAQVRRALDYWGQGTLVTVSS
VL: DIQMTQSPSSLSASVGDRVTITCKSSQSLLYSSNQNNYLAWYQQKPGKAPKLLIYWASIRDSGVPSRFSGSGSGTDFTLTISSLQPEDFATYYCQQYYTYPYTFGQGTKVEIKR
notes: Fab
For the molecule B1, the “fold higher affinity than the chimeric 9.1 Fab” value in [1] is approximately 2 fold. In addition, the Kd in assay [2] is 0.13 nM and 0.17 nM; in assay [3] (220 RU BR3-Fc immobilized), 0.95 nM; in assay [3] (380 RU BR3-Fc immobilized), 0.61 nM; in [4], 0.15 nM; in assay [5], 0.78 nM. For the same molecule, the koff is 0.000137 s⁻¹ and 0.000163 s⁻¹ in assay [2]; 0.00068 s⁻¹ in assay [3] (220 RU BR3-Fc immobilized); 0.000392 s⁻¹ in assay [3] (380 RU BR3-Fc immobilized). For the same molecule, the kon in assay [2] is 1.08e+06 M⁻¹ s⁻¹ and 950000 M⁻¹ s⁻¹; in assay [3] (220 RU BR3-Fc immobilized), 720000 M⁻¹ s⁻¹; in assay [3] (380 RU BR3-Fc immobilized), 640000 M⁻¹ s⁻¹.

B2: Hu9.1-RF Fab (Fab, V domains shown)
VH: EVQLVESGGGLVQPGGSLRLSCAASGFTVTAYYMSWVRQAPGKGLEWVGFIRDKANGYTTEYNPSVKGRFTISRDTSKNTFYLQMNSLRAEDTAVYYCAQVRRALDYWGQGTLVTVSS
VL: DIQMTQSPSSLSASVGDRVTITCKSSQSLLYSSNQNNYLAWYQQKPGKAPKLLIYWASTRESGVPSRFSGSGSGTDFTLTISSLQPEDFATYYCQQYYTYPYTFGQGTKVEIKR
For B2, the “fold higher affinity than the chimeric 9.1 Fab” value in assay [1] is approximately 2 fold. In [2], this molecule displayed a Kd of 0.14 nM, a koff of 0.000294 s⁻¹ and a kon of 2.02e+06 M⁻¹ s⁻¹. In assay [3], this molecule yielded a Kd of 6.4 nM, a koff of 0.00186 s⁻¹ and a kon of 290000 M⁻¹ s⁻¹.

B3: Hu11G9-46 Fab (Fab, V domains shown)
VH: EVQLVESGGGLVQPGGSLRLSCAASGDSITSGYWNWVRQAPGKGLEWVGYISYSGSTYYNPSLKSRFTISRDTSKNTFYLQMNSLRAEDTAVYYCAGLNDLYLYFDVWGQGTLVTVSS
VL: DIQMTQSPSSLSASVGDRVTITCRSSQSLVHSNGNTYLHWYQQKPGKAPKLLIYKVSNRFSGVPSRFSGSGSGTDFTLTISSLQPEDFATYYCSQSTHVPPFTFGQGTKVEIKR
notes: Fab
As to B3, in assay [1], the “fold improved affinity relative to the chimeric 11G9 Fab” value was more than 10 fold. The Kd was 0.46 nM and 0.652 nM in [2]; 1.38 nM and 1.62 nM in [3]; 1.5 nM in assay [4]; 5.4 nM in assay [5]. The koff in assay [2] is 0.000808 s⁻¹ and 0.000867 s⁻¹; in [3], 0.000902 s⁻¹ and 0.000808 s⁻¹. In addition, the kon was 1.76e+06 M⁻¹ s⁻¹ and 1.33e+06 M⁻¹ s⁻¹ in assay [2]; 660000 M⁻¹ s⁻¹ and 500000 M⁻¹ s⁻¹ in assay [3].

B4: V3-1 Fab (Fab, V domains shown)
VH: EVQLVESGGGLVQPGGSLRLSCAASGFTISSNSIHWVRQAPGKGLEWVAWITPSDGNTDYADSVKGRFTISADTSKNTAYLQMNSLRAEDTAVYYCARRVCYNRLGVCAGGMDYWGQGTLVTVSS
VL: DIQMTQSPSSLSASVGDRVTITCRASQDVSTAVAWYQQKPGKAPKLLIYSASFLYSGVPSRFSGSGSGTDFTLTISSLQPEDFATYYCQQSRITPPTFGQGTKVEIKR
notes: soluble Fab in SPR
In the case of B4, the IC50 amounted to 9.4 nM in [6], 9.5 nM in [7] and 5.4 nM with MiniBR3 peptide. In addition, the Kd turned out to be 7.9 nM in assay [8], 2.5 nM in assay [9], 2.5 nM in [10] and 7.87 nM in assay [11]. In addition, the koff in assay [8] was found to be 0.000293 s⁻¹; in [9] it was 0.000195 s⁻¹; in assay [10], 0.000195 s⁻¹; in assay [11], 0.000293 s⁻¹. In addition, the kon in assay [8] came to 37300 M⁻¹ s⁻¹; in [9] it was 77100 M⁻¹ s⁻¹; in assay [10], 77100 M⁻¹ s⁻¹; in assay [11] it was 37300 M⁻¹ s⁻¹. Besides, the “OD450nm reduction (%)” value in assay [12] and in assay [13] was less than 50% throughout.

B5: 96 (Fab, V domains shown)
VH: EVQLVESGGGLVQPGGSLRLSCAASGFTINSSAIHWVRQAPGKGLEWVGYITPASGYTDYADSVKGRFTISADTSKNTAYLQMNSLRAEDTAVYYCAKGFHWYRGFFDYWGQGTLVTVSS
VL: DIQMTQSPSSLSASVGDRVTITCRASQDVSTAVAWYQQKPGKAPKLLIYSASFLYSGVPSRFSGSGSGTDFTLTISSLQPEDFATYYCQQSYTTPPTFGQGTKVEIKR
notes: also called V96; clone 96
Regarding B5, the binding result was “binds” in assay [14] and “no binding” in [16]. In the assay with mouse BR3-Fc [15], the IC50 worked out at 200 nM. Further, the “Blocking to % (phage bound in the presence of BAFF)” value with mouse BR3-Fc [17] amounted to 65%.

B6: 24 (Fab, V domains shown)
VH: EVQLVESGGGLVQPGGSLRLSCAASGFTISGSSIHWVRQAPGKGLEWVGTIYPYGGNTYYADSVKGRFTISADTSKNTAYLQMNSLRAEDTAVYYCARRAFVMSGMDYWGQGTLVTVSS
VL: DIQMTQSPSSLSASVGDRVTITCRASQDVSTAVAWYQQKPGKAPKLLIYSASFLYSGVPSRFSGSGSGTDFTLTISSLQPEDFATYYCQQSYTTPPTFGQGTKVEIKR
notes: also called V24; clone 24
Take B6: the values for the binding result in assay [14] and in [16] were “binds” and “no binding”, respectively. The IC50 with mouse BR3-Fc [15] stood at 133 nM. The “Blocking to % (phage bound in the presence of BAFF)” value with mouse BR3-Fc [17] came out at 90%.

B7: 89 (Fab, V domains shown)
VH: EVQLVESGGGLVQPGGSLRLSCAASGFTITGYGIHWVRQAPGKGLEWVAGITPANGYTDYADSVKGRFTISADTSKNTAYLQMNSLRAEDTAVYYCAKSFPFHYNFDYWGQGTLVTVSS
VL: DIQMTQSPSSLSASVGDRVTITCRASQDVSTAVAWYQQKPGKAPKLLIYSASFLYSGVPSRFSGSGSGTDFTLTISSLQPEDFATYYCQQSYTTPPTFGQGTKVEIKR
notes: also called V89; clone 89
Take B7: the IC50 was 5000 nM in assay [14] and 37 nM with mouse BR3-Fc [15]. In addition, the binding result in [16] is “no binding”. For the same molecule, the “Blocking to % (phage bound in the presence of BAFF)” value with mouse BR3-Fc [17] was 90%.

In general, Kd refers to the concentration at which binding is half-saturated. The low end stands for higher affinity, the high end for lower affinity. As usually defined, the koff is the rate constant with which the complex falls apart. In general, kon refers to a measure of how fast the partners come together. By IC50 is commonly meant the midpoint of a concentration-inhibition curve. A low value points to greater potency.
